Source: the DeepSol protein solubility set

Test: soluble on expression in E. coli; label from the status in PepcDB or PDB records

Soluble on expression in E. coli, not soluble:
MGSDKIHHHHHHMTDVNASSESRLAALEARVTELEDLNAIRRLQWAYGYYIDYNRPEEVAGLFAKDGAVVFLSGEYVGYEGVMRLYGTWFQNLFTGGRRGPVHGLLLDHFQLQDVITIAPDGQTAKGRFRGILAGGWHDDIVKDKPEGMPQQFWESGIYENDYVKEDGVWKIKRLDYMMQWQADYETGWSKTIAHLQPAAVCFPENPIGPDRLLPETEVRQTWPHRAEVPMSFAHPVLAKAFAVGEFTKLQKKWP
MGSDKIHHHHHHMTLSKERKLHIPFERDGDLMDIGSYPHWLQDVVGTVRAARDRVRFHEVFSLMRDGRLAPRQLAAFFVNGWPVVEQFPKYMSMNLLKANGTNSSGEEKARRYLIRNIRVELNHVEHWVNWAEASGVPRRQLTDGDSPPAALALSHWCWKSSSADTLAASIAATNYAIEGVTGEWSADLCRSDVYEMGFPEAVRGRAMRWLRLHSSYDDKHPWEALDIVATILGQSPSTEQVRDVAAGIERSFRYFEMSLSCCLDA
MSEDGGVTTDERACAAPLQLSNTFPRVSRHAVQTGLSPHPRVRNVIAVGSGKGGVGKSTIAVNLAVALQRTGVRVGLLDADIYGPSVPAMLGLSGRPESPDNKLIEPLRAFGIEAMSIGLLIDVDTPMIWRGPMATSALTQLFNDTLWGDLDYLLIDLPPGTGDIQLTLSQKIPVAGAVIVTTPQDIATLDARKALKMFEKVNVPVLGIVENMAMHCCRQCGHVEHLFGEGGAQRMAEHYHVPLLGSLPLDIVIREHGDLGQPITVAAPKGSVGQAYAAVAACLAAELAKRPRAAIPMTTTLGLEHHHHHH
MGNTAMWMSCNPTIPILFGIQVKIFPLNQIFNHIHPARYAVTFENNVDSKLRRHWVAGATIRIIDRQTDEVIAKKTIYVFEKGLDGTGGARMPWKFAILCNKERLTSSEPLSDFVLSVLKPYILRPLYIASLRRDD
MTEPVHPIADLTDSLLGWASQTELELAQRLAGGGLVIAAGLSDDELERIERLYGIFLTRQLLAGADFAALIGVSPALTLTTLVARARRVVEIDDFVSEFLGGLGLATDESSVIDIDEATAAIMGAIPQSLARFELLGAQEATDALSAIVSLCTQAGIVNNEVPALLEYLDAVNAEGTVSSEDLVAAIAQQENLPLLATALQIAPAAITELIDGVAAVRQFAVDHHDSWFDRSREHLTPLLPRPIEFSVVSELRERPVGTVDREASVGVASREMRPRILFDADRSKVYLRLPEQRLPIADDGTRGEITWRVSIEGTTKIYHTGSPWGDTSGFAESLDVHIERPVRELTVQDETNEITWTVPVLAHDDPALVFSSRGTNVTDKVALHHQSLIVVTPQDVTLTDVVSGDDIVADSETAVEGWDKWVARYLDVSHVTSLSAVEPGKNANMETLRSIDPRQRVRFLAPSEPVDFLKTTGGLPVHSESLIAEFPPTPSGRTE
MRTEKEMIDLIMNTAKEDERIRAVIMNGSRVNPNVKKDCFQDFDIIYAVKDIRSFTSNHNWIHRFGEIMIVQMPEEMSLIPADEDGKFPYLMQFMDGNRIDLTLAPVELINNFVRQDSLSKLLLDKDNCMEGFPPASDKDYLIKKPTEKEFLDCCNEFWWCSTNVAKGLWREELSYVKGMLDGPVRDMLIVMLEWHIGMKTDFIVNAGKFGKHFEKYIEKDMWVQFKRTFSNAEYENIWESFFDMGNLFREVANEIANAYGYPYPQGDDDRVTSYLKHVKALPKDSTSIY
MDLKSTKKTWKIPSFNQMWGKITSHIGVWFGLEEAERPMRASCSLSMIHHPQLTAVRSSKSSENLHRITTMSPQRIQDVDGSPSTRKPSSSIFTLRRSRNKEKKYKNNGGGGSTKSPISKNGTNEMTQSWHSNHVNGASSGSGSGSTPEHHNKNIFSFLSRQSRSRSNNPSETMSTVPLNKNSPSMPPPPSSNTVADFTHLRRRRPRSAHYDPNTITLPAKEEVTPQDVNDLYKRIDKLGEGSYATVYKCESKLDGSIVALKEIKLQFQEGLPFTAIREASLLRNLRHANIVSLHDIFYQHHQLTFVFEYMKMDLSKYLEQNVYGLDSIDIKLLLFQLLRGLDFCHRKKILHRDLKPQNLLLDEDGVLKLADFGLARAKSVPSRTYSHEVVTLWYRPPDVLMGSTDYSTSLDMWGVGCIFAEICTGAALFPGSKDSHYPGTKDQLDMIFSIRGTPDEKKWPEVKTLPGYTPELFPRYRELSFIAVNPMFTKILKTGQELLGMLLQLRPESRVSAASAMLHPYFASFPREVHLLAPSQSIFRLKELKDLRSL
MGSDKIHHHHHHMQQLQAAVALHKQGELDKAEAIYQQVLAVDVNNFYALNFCGSIKREKKRFDEGIDFLSRAISLQPDNPDAIYNLGNVFKDSERWDEAISCYEKTLGLRAESPEALNNLGICLKEVERFEYSEIVLRRVVSMQPGLAGAWLNLGNTFKEQEKYSEAKASYRNAIDLKPDFEAAYFALGLVLKEEGKVEEAIASYRKAIELKPDFADVYFALGLVLKEAGEFEAARQIVSALSTVNAMEDSTLLSFSLCDLVFDWYHRRVLNLLEDVEMTALSGASAPFSAYETVRKIQPQLFPPLFLKGEGDRANEKHLYRNGYLVEDEILPEDLCAEFVNGFEGANAMSAALIRAVSEKGVLGSVLGKIFKHTDFPHLVWNCIYFAKGPDDQAISDAWHYDNHYNVWTPKLMIYLNSQREEGGATEFVDTSLSRRLSEETDYMGFIWQRESYADRVKGSVKDLGLDPATLDPDHYTFSPDHAGSGVWFCPSRVLHRGVSPKKGVRHVLSFSLTPLPHDCGWSIDQCVDKSIEILQDKINKGMQKSDVNPYWIPAEAGYA

Soluble on expression in E. coli, soluble:
MSLIAPLLVIEDEPAVMSFVRRALERGGYTVVGANSGMQALELLKGQQFQGIISDMRTPGNVDGGGVYHWIREHRPELANRIVFITGDIVNEETVAVLKETGAPCVEKPFRVQDLIATVENTIGKPQQETEGHHHHHH
MQEGVKVVVDSRELRSEVVKRLKLLGVKLEVKTLDVGDYIISEDVAIERKSANDLIQSIIDGGLFDQVKRLKEAYSRPIMIVEGSLYGIRNVHPNAIRGAIAAVTVDFGVPIIFSSTPEETAQYIFLIAKREQEEREKPVRIR
MAKHGADEPSSRSGSPDREGRASEDRSLLHQRLAVRELIDTEVSYLHMLQLCASDIRSRLQQLPQGDLDVLFSNIDDIIKVNSRFLHDLQETASKEEEQVQLVGNIFLEFQEELEQVYKVYCASYDQALLLVDTYRKEPELQRHIQGIVEAVVPQAGSSGLSFLLVIPLQRITRYPLLLQKILENTVPDASAYPVLQRAVSALQDVNTNINEYKMRKEVASKYTKVEQLTLRERLARINTHTLSKKTTRLSQLLKQEAGLIPRTEDKEFDDLEERFQWVSLCVTELKNNVAAYLDNLQGAVGFYHWLTPTQMIDGLALGESTPGPLIMVVAFVGFLAAYNHSLLGAEHQFIAVLQDVRDHRITQVRAAEILNLSTRQITRLLQKLNQDGVSGLAHASRGQPGHHRHDELLKSKCLSIISEHLLGFGPTLAHEKLSSIFDLNIPVETVRRWMMANDLWIPRSKRLKRPYQPRYNRDCFGELIQIDGSYHDWFEGRAAKCCLLVYIDDATGKLLHLRFCEAETTFDYMLSTRAYIEQYGKPLAFYSDKHSVFRVNQKSRKDSQITQFGRILNELNIDIIFANSPQAKGRVERANRTLQDRLIKEMRLEGISSIAEANAWLPCFIEHFNQKFAKCARNSKNLHRSLTESDAELEDIFTWQEPRKVTKNLTITYDKCIYLLEPTELNHKLVGQYISFLEYPDGTVALMHEGRKINYSVFNKLAGLQQNEVVENKRLGSVLAHIQQQHEELEKQNKRSRLKKSMPSRKAQKAVIEQRKLNPVLDSCG
MHSIYKFSTCNVHRESPLRVRVEDLTVAYNGEPVLSGVNLEFRGPGLVQIIGPNGAGKTTFLKAILGLIKPARGRVFLDGFEATGRPEMVGRYAGYVPQNPSAPKLSPMTVREFVETSLRLRGVTRARERAVEVLHTLGIRGEVLESRLWELSMGMLQRVFIARAIAPDPKMLVMDEPLASVDPAGRMEIARIIAGLARERLVLMTSHDPSLLLGHTDIIVVINRDLIASGPPEEVYREDVLRRVYGESVARGLVLAGEGGAHG
MNNPAMTIKGEQAKKQLIAAALAQFGEYGMNATTREIAAQAGQNIAAITYYFGSKEDLYLACAQWIADFIGEQFRPHAEEAERLFAQPQPDRAAIRELILRACRNMIKLLTQDDTVNLSKFISREQLSPTAAYHLVHEQVISPLHSHLTRLIAAWTGCDANDTRMILHTHALIGEILAFRLGKETILLRTGWTAFDEEKTELINQTVTCHIDLILQGLSQRSL
MGSSHHHHHHSSGLVPRGSHMSLNILGYDVGGTKISTVVGNDSGEILSNVRMPTVKHLGKKRLIEEMITMGDAALKKAHVEKPDLIGIIFAGPVDRNRGVVIASPNIFGLSNFNIVEPIRDYYRTDTFLENDAQAAAIAERLFGSGRNVDNFVYMTLSTGIGGGIFINGKLYRGAHGMAGEIGHNVIMVNGPTCGCGRRGCLEALAGGKAIARRVIENLRAVRDSDFFSKLRPNEITAEKVFEGKKQGDMFSQLILEETIYYLAVGLVNIINTLDPELVIIGGGISKAGKDLFDPLNDAVKEEFKSMYRPFKIVPGLENGSDLAAISVPLYTEMELHGEGEKQY
MSLLANLPPLVTVFGGSGFVGRHVVRMLAKRGYRIRVAVRRPDLAGFLQPLGNVGQISFAQANLRYRDSIIKAVEDADHVVNCVGILAESGRNTFDAVQEFGAKAIAEAARDTGATLTHISAIGADANSQTGYGRTKGRAEAAIHSVLPGAVILRPSIIFGPEDDFFNKFAKMARNLPFLPLIGGGKTKFQPVYVEDVAEAVARSVDGKLKPGAIYELGGPDVMTFRDCLEAVLAATYRERSFVNLPFGVASMIGKLASLVPLITPPLTPDQVTMLKKDNVVSAEAEKKGLTLEGIGITPVRVASVLPSYMVQYRQHGQFSNAGKAAEGHHHHHH
MNDHIHRVPALTEEEIDSVAIKTFERYALPSSSSVKRKGKGVTILWFRNDLRVLDNDALYKAWSSSDTILPVYCLDPRLFHTTHFFNFPKTGALRGGFLMECLVDLRKNLMKRGLNLLIRSGKPEEILPSLAKDFGARTVFAHKETCSEEVDVERLVNQGLKRVGNSTKLELIWGSTMYHKDDLPFDVFDLPDVYTQFRKSVEAKCSIRSSTRIPLSLGPTPSVDDWGDVPTLEKLGVEPQEVTRGMRFVGGESAGVGRVFEYFWKKDLLKVYKETRNGMLGPDYSTKFSPWLAFGCISPRFIYEEVQRYEKERVANNSTYWVLFELIWRDYFRFLSIKCGNSLFHLGGPRNVQGKWSQDQKLFESWRDAKTGYPLIDANMKELSTTGFMSNRGRQIVCSFLVRDMGLDWRMGAEWFETCLLDYDPCSNYGNWTYGAGVGNDPREDRYFSIPKQAQNYDPEGEYVAFWLQQLRRLPKEKRHWPGRLMYMDTVVPLKHGNGPMAGGSKSGGGFRGSHSGRRSRHNGP
GLEVDNNSLLRNIYSTIVYEYSDIVIDFKTSHNLVTKKLDVRDARDFFINSEMDEYAANDFKTGDKIAVFSVPFDWNYLSKGKVTAYTYGGITPYQKTSIPKNIPVNLWINGKQISVPYNEISTNKTTVTAQEIDLKVRKFLIAQHQLYSSGSSYKSGRLVFHTNDNSDKYSFDLFYVGYRDKESIFKVYKDNKSFNIDKIGHLDIEIDS
METKDLIVIGGGINGAGIAADAAGRGLSVLMLEAQDLACATSSASSKLIHGGLRYLEHYEFRLVSEALAEREVLLKMAPHIAFPMRFRLPHRPHLRPAWMIRIGLFMYDHLGKRTSLPGSTGVRFGADSVLKPEIVRGFEYSDCWVDDARLVLANAQMVVRKGGEVLTRTRATAARRENGLWIVEAEDIDTGKKYVWQARGLVNATGPWVKQFFDEGMHLPSPYGIRLIKGSHIVVPRVHNQKQAYILQNEDKRIVFVIPWMEEFSIIGTTDVEYKGDPKAVKIEESEINYLLKVYNAHFQKQLGRDDIVWTYSGVRPLCDDESDSPQAITRDYTLDIHDENGKAPLLSVFGGKLTTYRKLAEHAMEKLASYYPGIGPAWTKTCVLPGGDIDGSREDYAAKLRRRYPFLTESLARHYSRTYGSNTEWILGEATSLLDLGEDFGHEFYEAELKYLVDHEWVRRTEDAIWRRTKEGMWLTAEQQSRITQWLAAYVEKHQLSMASLEHHHHHH
